The assay addresses Biotinylated human CI-MPR domains I-XV (residues 41Q-G2293) (human) (UniProt P11717). As to the kind of experiment: SPR; equilibrium binding; about 1,000 RU of biotinylated ligand on a streptavidin-coupled CM5 chip, LIMP-2 as analyte; Biacore T100, 25 °C, 10 mM HEPES pH 7.5, 150 mM NaCl, 0.005% Tween 20; one-site saturation binding model.

Chain of Biotinylated human CI-MPR domains I-XV (residues 41Q-G2293) (human) (P11717 41-2293): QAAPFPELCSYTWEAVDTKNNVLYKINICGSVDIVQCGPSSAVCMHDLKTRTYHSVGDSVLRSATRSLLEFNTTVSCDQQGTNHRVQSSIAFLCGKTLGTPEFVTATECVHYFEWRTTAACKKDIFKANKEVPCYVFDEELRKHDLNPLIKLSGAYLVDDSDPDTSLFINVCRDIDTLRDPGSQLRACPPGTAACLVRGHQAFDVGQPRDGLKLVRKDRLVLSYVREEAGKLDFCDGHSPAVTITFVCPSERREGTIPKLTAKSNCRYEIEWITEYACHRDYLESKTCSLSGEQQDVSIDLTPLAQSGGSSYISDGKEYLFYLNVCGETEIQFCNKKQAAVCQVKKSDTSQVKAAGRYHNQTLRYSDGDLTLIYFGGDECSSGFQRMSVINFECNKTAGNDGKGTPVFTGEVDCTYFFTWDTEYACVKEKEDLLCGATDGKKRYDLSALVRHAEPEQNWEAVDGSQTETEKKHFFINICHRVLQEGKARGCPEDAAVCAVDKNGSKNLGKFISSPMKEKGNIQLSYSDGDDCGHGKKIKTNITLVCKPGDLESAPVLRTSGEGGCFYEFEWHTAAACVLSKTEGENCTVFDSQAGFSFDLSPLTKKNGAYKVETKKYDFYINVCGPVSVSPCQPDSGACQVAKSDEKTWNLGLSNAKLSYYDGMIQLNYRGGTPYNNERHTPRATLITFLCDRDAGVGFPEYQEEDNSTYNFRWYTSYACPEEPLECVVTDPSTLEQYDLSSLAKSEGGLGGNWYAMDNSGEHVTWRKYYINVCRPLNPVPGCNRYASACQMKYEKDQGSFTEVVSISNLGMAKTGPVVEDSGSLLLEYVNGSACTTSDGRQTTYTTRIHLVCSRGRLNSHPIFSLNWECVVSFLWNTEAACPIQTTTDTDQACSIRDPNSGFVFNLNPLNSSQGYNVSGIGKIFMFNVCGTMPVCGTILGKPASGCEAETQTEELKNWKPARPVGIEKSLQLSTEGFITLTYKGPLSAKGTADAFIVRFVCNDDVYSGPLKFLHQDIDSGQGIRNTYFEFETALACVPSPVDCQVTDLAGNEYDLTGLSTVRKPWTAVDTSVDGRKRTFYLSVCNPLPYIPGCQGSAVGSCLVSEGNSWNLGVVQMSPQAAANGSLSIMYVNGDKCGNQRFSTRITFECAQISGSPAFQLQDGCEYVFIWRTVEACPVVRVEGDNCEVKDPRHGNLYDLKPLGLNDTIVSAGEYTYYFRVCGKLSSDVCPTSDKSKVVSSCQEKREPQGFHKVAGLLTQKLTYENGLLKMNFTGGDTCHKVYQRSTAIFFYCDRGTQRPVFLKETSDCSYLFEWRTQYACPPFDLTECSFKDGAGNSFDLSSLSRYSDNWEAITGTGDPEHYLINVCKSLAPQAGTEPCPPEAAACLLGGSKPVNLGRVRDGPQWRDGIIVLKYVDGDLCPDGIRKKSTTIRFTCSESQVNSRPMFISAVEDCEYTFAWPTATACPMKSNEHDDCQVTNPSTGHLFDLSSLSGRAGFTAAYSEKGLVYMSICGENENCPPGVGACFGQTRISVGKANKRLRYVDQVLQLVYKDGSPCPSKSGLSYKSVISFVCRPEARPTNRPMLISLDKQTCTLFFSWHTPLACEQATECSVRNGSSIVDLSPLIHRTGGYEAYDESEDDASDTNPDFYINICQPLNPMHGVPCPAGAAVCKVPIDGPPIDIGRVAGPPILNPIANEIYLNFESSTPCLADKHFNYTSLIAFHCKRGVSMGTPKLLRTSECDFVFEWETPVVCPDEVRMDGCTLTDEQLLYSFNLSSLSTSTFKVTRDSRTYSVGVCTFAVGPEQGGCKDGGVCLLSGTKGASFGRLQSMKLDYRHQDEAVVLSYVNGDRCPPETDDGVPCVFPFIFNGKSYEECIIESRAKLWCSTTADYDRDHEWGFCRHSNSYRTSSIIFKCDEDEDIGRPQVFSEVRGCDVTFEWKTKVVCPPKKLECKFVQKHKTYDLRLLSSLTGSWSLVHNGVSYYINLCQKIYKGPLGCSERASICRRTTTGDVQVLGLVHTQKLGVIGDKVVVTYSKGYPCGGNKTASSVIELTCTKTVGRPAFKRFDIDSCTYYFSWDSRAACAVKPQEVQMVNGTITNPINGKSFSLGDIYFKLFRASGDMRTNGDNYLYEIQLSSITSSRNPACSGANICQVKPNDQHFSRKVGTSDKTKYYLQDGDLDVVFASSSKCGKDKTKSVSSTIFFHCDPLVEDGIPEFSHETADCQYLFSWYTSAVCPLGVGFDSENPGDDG

In the case of “Human LIMP-2 luminal domain (residues 28-431) produced from HEK293S (GnTI-) cells, with limited glycosylation (from UniProt Q14108 28-431) (domain or fragment)”, the Kd stood at 2200 nM.

Regarding “Human LIMP-2 luminal domain (residues 28-431) produced from HEK293T cells, with full glycosylation (from UniProt Q14108 28-431) (domain or fragment)”, the dissociation constant Kd came to 970 nM.

The record behind these values is article PMC4104448.
